B1: TPR 5TU (parent)
chain: GGAUCUUCUCGAUCUAACAAAAAAGACAAAUCUGCCACAAAGCUUGAGAGCAUCUUCGGAUGCAGAGGCGGCAGCCUUCGGUGGCGCGAUAGCGCCAACGUUCUCAACUAUGACACGCAAAACGCGUGCUCCGUUGAAUGGAGUUUAUCAUG

Variants at the floor of the assay were thinned out.

In the series the parent is B1. The series can be described thus: polymerase ribozyme fitness, log enrichment relative to wild type (log ratio); higher = more active; in vitro selection for triplet polymerase activity. The essentials: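 One round of in vitro selection, in triplicate, was applied to PCR-built, transcribed mutant libraries of each subunit of a heterodimeric triplet polymerase ribozyme. The steps were annealing with a biotinylated primer, partner subunit and triplets, incubation frozen at −7 °C, gel excision of extended constructs, streptavidin-bead capture and RT-PCR. Fitness is the logarithm, base 2, of genotype enrichment over wild-type enrichment from inverse-variance-weighted replicate averages of Illumina-sequenced inputs and outputs, keeping genotypes with ≥10 input reads and ≥1 read per output.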
C10U C75U G84A U145A: the “polymerase ribozyme fitness (log ratio)” value is -4.08.
A22U A26C G62C C87A C116G A147U: the “polymerase ribozyme fitness (log ratio)” value was at most -4.2.
The value for A19U A29U A39G U44G C85U G143U was at most -4.2; that for G59C A60C U77A C85A G140A U144C was at most -4.2; that for C27G was -3.12.
Turning to A40C A41U C99U C125A, the “polymerase ribozyme fitness (log ratio)” value is -2.04.
The value for A16U A17U A26U C27G A49U C54A A66U C85A C116G was -3.74; that for C85U U127A was -3.36.
The value for G124U G143U U148G was at most -4.2.
The figure for U45A A64C C93A is at most -4.2.
Consider C18U A52U, for which the “polymerase ribozyme fitness (log ratio)” value is -1.92.
The figure for A66C is -4.16; for A21C C93G it is -3.
Regarding A21C C93U, the “polymerase ribozyme fitness (log ratio)” value was -1.24.
The value for A3C C5U C43U G70C G84A A106U A113C was at most -4.2.
Take A21C A41U C76U G84A C95U U111G: the “polymerase ribozyme fitness (log ratio)” value is -4.18.
In the case of U4G A21U U31A G84U A115C, the “polymerase ribozyme fitness (log ratio)” value is -3.65.
The figure for A21G A60G G68U C93G C95G U139C is at most -4.2; for A122G U127A G128A it is -4.01.
On to C8G A24G A30G G70A G136C, for which the “polymerase ribozyme fitness (log ratio)” value is at most -4.2.
On to C10U G42U A64U C93A A106U C123U G140A, for which the “polymerase ribozyme fitness (log ratio)” value is at most -4.2.
The figure for U82C C85A U145C is 0.554; for A73G C118G C132G it is at most -4.2; for C51A C54U A91U G100U G124A U135C it is at most -4.2.
For A37C C96G U101G A150C U151A, the “polymerase ribozyme fitness (log ratio)” value was at most -4.2.
The value for U4C C57A C95A C96U G141A was -3.87; that for A41C G59C C75U G83C was -2.72; that for U13G G136A A137G C149U was -3.07.
The value for U7C A12G C96U was -2.17; that for A19G C57G G84U was -2.3; that for C8U U56A was -3.09.
The value for G59C A98U C125A G140C was at most -4.2; that for A30U C57A A73G G81C G92U G141A U148A was at most -4.2; that for A29U A142G C149U was at most -4.2.
For A40C U82G A89G, the “polymerase ribozyme fitness (log ratio)” value stood at 0.203.
Take U15A C38U G58A U61G G68A G83A C87G A106C U145C: the “polymerase ribozyme fitness (log ratio)” value was at most -4.2.
The value for U7A A21U G25U U44A A49C C54A C63G C85U G86U C99G was at most -4.2.
The figure for U61G C95U A97G C105A A106U is at most -4.2; for U4G G74A G84U U109A it is at most -4.2.
The figure for A30G G58U C118U is -3.95; for C36G C95U it is -3.45; for G88U A91G it is at most -4.2.
Regarding A21G U82A C96A U101G A121U, the “polymerase ribozyme fitness (log ratio)” value was 0.493.
The value for G50C U104C C116A G143U was at most -4.2.
Consider U53G G84U C96G, for which the “polymerase ribozyme fitness (log ratio)” value is at most -4.2.
The value for C51U U53A C93A G124U was -3.59; that for A19C U56C C96U G133C was -2.22; that for C10A A19C A29U C36U C57U G58A A66C G67C U82G G84U U109A was at most -4.2.
On to C35A A39C C87U G92C A138C A147G, for which the “polymerase ribozyme fitness (log ratio)” value is at most -4.2.
For U55G A97G, the “polymerase ribozyme fitness (log ratio)” value is 0.0201.
The figure for U77G G92U A115U is at most -4.2; for U45G G92U C103A U104A it is at most -4.2.
The figure for A30U G50C U56A A66C G141A is at most -4.2; for A12U C76G C85U C103A G126C U145G it is at most -4.2; for U53A C54U C57A G86A it is -2.08.
The figure for A39G U101C is -1.89.
Turning to C14U U45A A91U U127G, the “polymerase ribozyme fitness (log ratio)” value was at most -4.2.
The value for A23U G50A C132U G140C was at most -4.2.
Regarding A142G U146C, the “polymerase ribozyme fitness (log ratio)” value was -3.25.
The figure for A47G A115C is -0.724.
The figure for C27A U55G A66U C72U U78G C79U A91C C105U is at most -4.2; for G50C C96U U134A it is at most -4.2.
The figure for C14G A21C C54A G67A G94U C123U is at most -4.2; for C32U G50C C54G A73G G88A C96G it is at most -4.2.
Turning to U56A C69A G84A, the “polymerase ribozyme fitness (log ratio)” value is -1.63.
The value for A64C G88U A150C was at most -4.2; that for A21C A52C G68A U101G was at most -4.2.
On to A12G U15C A37G U44A U56A C69U C87U, for which the “polymerase ribozyme fitness (log ratio)” value was at most -4.2.
The value for C72U A91U C96G was at most -4.2; that for A39G A97U was -2.96.
The figure for G58A G117U is 1.04; for G83A A98U it is -0.299.
The figure for U146G is -0.513; for A12U C18U A19G U56G A60U C76G C108U C114G it is at most -4.2; for C32G G92A U111G it is -4.13.
Take A12U G42A C85U C99G: the “polymerase ribozyme fitness (log ratio)” value was at most -4.2.
The figure for C35G G83C A91C C108U G136U is at most -4.2; for G48C G92U it is -1.69.
Consider C14U A47C G50A G70A U77C C85A C125G C132A A142U, for which the “polymerase ribozyme fitness (log ratio)” value is at most -4.2.
For the variant A23C G42U A137U, the “polymerase ribozyme fitness (log ratio)” value is at most -4.2.
The figure for G70U G136A is -1.86; for G68U C79A U102G A119G it is at most -4.2.
The value for G48C C54A C108G C114U C125U U134A C149G was at most -4.2; that for U15C A20G A21U A39U C76U C85A C103A C108U was at most -4.2.

(Values after the RNAGym collection of RNA variant scans (doi:10.1073/pnas.2313332121).)
